In this test the target is actin of the thin filaments of rabbit psoas myofibrils (rabbit (endogenous in psoas myofibrils)) (UniProt P68135). Description: co-sedimentation.

As for “rabbit fast skeletal tropomyosin (from UniProt P58772 1-284; P58776 1-284) (natural protein)”, the average level of replacement of Tm in reconstituted myofibrils stood at 96%.
